Data reported in the DeepSol protein solubility set.

test: soluble on expression in E. coli; label from the status in PepcDB or PDB records

Soluble on expression in E. coli, soluble:
DVQLVESGGGLVQPGGSRKLSCAASGFTFSSFGMHWVRQAPEKGLEWVAYISSGSSTLHYADTVKGRFTISRDNPKNTLFLQMTSLRSEDTGMYYCARWGNYPYYAMDYWGQGTSVTVSSAKTTPPSVYPLAPGSAAQTNSMVTLGCLVKGYFPEPVTVTWNSGSLSSGVHTFPAVLQSDLYTLSSSVTVPSSPRPSETVTCNVAHPASSTKVDKKIVPRDC
MPTAADNHWSMPPNPEKALMLAQRAVAVFVYDAVRLEGINFTLPEVQTLLQGVTVGGHRLSDQQIAVNQGEAWKLLFQMIRDGRFELTPDCAMALHGVAAKEEALEWGCFRSGSVLIAGTEYEPPAASELPTRFDRMIDELQHMDDVHDQAVHLFLTMARCQFFYDVNKRMGRFMMNGHLLSNGYPAINIPASSQLEFNELMLRFYDSGDQREMNAFVRSCMDERVVLIMKEELEHHHHHH

Soluble on expression in E. coli, not soluble:
MTDVARLLALRSFTELGARQRARALLDAGSFRELLDPFAGVQSPWLERQGIVPQADDGVVVARGLLDGQPAVLAAIEGAFQGGSLGEVSGAKIAGALELAAEDNRNGVPTRALLLLETGGVRLQEANLGLAAIAEIQAAIVDLQRYQPVVAVIAGPVGCFGGMSIAAGLCSYVLVTREARLGLNGPQVIEQEAGIAEYDSRDRPFIWSLTGGEQRFASGLADAYLADDLDEVRTSVLAYFAKGLPARPRCRRAEDYLRRLGDLDTAEQPDAAGVRRLYQGLGQGDAT
MSLEDVIEQLRELNEPVPVPLELPDEDLLVEIEEQLLINLPFELREFLMKVSDVIYGSLEPVTVSDPQSHTYLPEVAAVAWDQGMPRDMVPLCQVGDDYYAVDIEGQVLLWSSDSGELSDESWDSVWHWAKDVWLASEGHHHHHH
MEVFGKSPMVVTSANVIYLSAILGRDCDGHKCDWKCENENVCGNMYRCKLTGLTHVCDKNCNQRILYDNHSSLCRASGRIFPLSSVEEQAVKGVRRKLDAAESHPSESCSFKRRRRDAQFHASPFERSFTAVSPICSPAGDGMELV
TKNWKWEMNFNIAKNSNKLVELADGVDSYSIYWTSFTTRLYNYAMVGKSLGVITGNTWERDDNGNIIFHELSASQKALYGGEYVPTYNQNTLDELGNFHPDFTGGFNTSISFKNFRLSANIDFSVGGQIVSYTNMWGSSSGILDKTAELNDRGVNVREPVSKGGGIHMTGVDQNGNKVDTYVNAKLYYTTASRVWEEWVYDRTYVKLREVSLSYVFPSQTLKKLNIGLSRASVAINASNPWLIYSACPNVDVSEIGMGYFEGGNAAATRSIGFTVNLAF
MGSDKIHHHHHHMIIGGLYMKFFEENYSQEIPTRIKNLRKKHNITQSELGNAGQVSQVESGKRPITSSMLVYLNALTASNYTYIVFGELDEFIENLFHYFFSSILYRDLEAVDENLYSFMSDDLISIQSSCLSIAKTFANFNIQRKRFMISTETEMDTFHKKDDIDVWVGGKSYNPARSFRNNPINELTVIDFEEMADILLLMLRDNLIRSFEINVCNTLFELDKNGEPTTFNLDKIDSIINKWWSENVSTEIIPNLIKKLRENPLFNIGFMVNDILERMYKEDIPKSYLTSVPLVISKKARSTLSIKSNGSQKIDKSKFAQILSL
KTVPSGQAGQGFAEKGPWKKLGLTYTQKTEIQRIHHNTRAEMDKVLTTEQKEQLKAAMQERQTQRSQGEGRGKWKKDIFTSLNLTDAQKSQIQEIRELSRKQMEAVLTPAQRQQLQQMEQNWKSRRQQGNSN
MTYIALIGDIIQSKQLTDRSKVQKTLAAYLDDLNKTFAPYIISKLSLTLGDEFQGLFQVDTPIFHLIDLINHHMDIPIRFGVGVGSILTDINPDISIGADGPAYWHAREAIRYIHQKNDYGNTTLALRTGHHNQDDVLNSLLAAGDAIKANWRASQWEIFDTLLDLGIYEEYFDQQRLGKQLSLSSSALSKRLKSSHVKIYLRTRQSALNCLKQIKEETDD
MGSDKIHHHHHHMDLITKQDGTTLHYSTMGQGYPVVLVHTAFDNYAVFNDLAKVLAKSFQVVLIDLRGHGYSDKPRNIEFYDFADDIKFLLDAIYIDEAAFIGHEMGALIAADMSVRNPGYISSITLVNPTSIEGELPEERLFRKYAHKIRNWEDDKQEKFLDKRRYYKARKMNKFLKHVVDTNSISTKEEIQAVKDVFKSEGIADVFKHVQVPTLIVAGEHGERTTTLEAKEVADLIQHCEFNVYQHSSAYPFVEEQAQFTQETTNFIQQHAPK
